Laboratory results from patent publication US20240254255A1.

Key:
[1] = target: human HER2 (ErbB2) expressed on the surface of cell lines and primary cells (human) (UniProt P04626); assay: flow cytometry, JIMT1 cells, [Ab] 5 ug/ml
[2] = target: human HER2 (ErbB2) expressed on the surface of cell lines and primary cells (human) (UniProt P04626); assay: flow cytometry, ZR751 cells, [Ab] 5 ug/ml
[3] = target: human HER2 (ErbB2) expressed on the surface of cell lines and primary cells (human) (UniProt P04626); assay: flow cytometry, JIMT1 cells, [Ab] 10 ug/ml
[4] = target: human HER2 (ErbB2) expressed on the surface of cell lines and primary cells (human) (UniProt P04626); assay: flow cytometry, JIMT1 cells, [Ab] 20 ug/ml
[5] = target: human HER2 (ErbB2) expressed on the surface of cell lines and primary cells (human) (UniProt P04626); assay: flow cytometry, ZR751 cells, [Ab] 10 ug/ml
[6] = target: human HER2 (ErbB2) expressed on the surface of cell lines and primary cells (human) (UniProt P04626); assay: flow cytometry, ZR751 cells, [Ab] 20 ug/ml
[7] = target: human HER2 (ErbB2) expressed on the surface of cell lines and primary cells (human) (UniProt P04626); assay: flow cytometry, ZR751 cells, [Ab] 40 ug/ml
[8] = target: human HER2 (ErbB2) expressed on the surface of cell lines and primary cells (human) (UniProt P04626); assay: flow cytometry, ZR751 cells, [Ab] 2.5 ug/ml
[9] = target: human HER2 (ErbB2) expressed on the surface of cell lines and primary cells (human) (UniProt P04626); assay: flow cytometry, MDAMB361 cells, [Ab] 5 ug/ml
[10] = target: human HER2 (ErbB2) expressed on the surface of cell lines and primary cells (human) (UniProt P04626); assay: flow cytometry, JIMT1 cells, [Ab] 1.25 ug/ml
[11] = target: human HER2 (ErbB2) expressed on the surface of cell lines and primary cells (human) (UniProt P04626); assay: flow cytometry, ZR751 cells, [Ab] 0.31 ug/ml
[12] = target: human HER2 (ErbB2) expressed on the surface of cell lines and primary cells (human) (UniProt P04626); assay: flow cytometry, ZR751 cells, [Ab] 0.63 ug/ml
[13] = target: human HER2 (ErbB2) expressed on the surface of cell lines and primary cells (human) (UniProt P04626); assay: flow cytometry, ZR751 cells, [Ab] 1.25 ug/ml
[14] = target: human HER2 (ErbB2) expressed on the surface of cell lines and primary cells (human) (UniProt P04626); assay: flow cytometry, MDAMB361 cells, [Ab] 10 ug/ml
[15] = target: human HER2 (ErbB2) expressed on the surface of cell lines and primary cells (human) (UniProt P04626); assay: flow cytometry, MDAMB361 cells, [Ab] 20 ug/ml
[16] = target: human HER2 (ErbB2) expressed on the surface of cell lines and primary cells (human) (UniProt P04626); assay: flow cytometry, MDAMB361 cells, [Ab] 40 ug/ml
[17] = target: human HER2 (ErbB2) expressed on the surface of cell lines and primary cells (human) (UniProt P04626); assay: flow cytometry, MDAMB361 cells, [Ab] 1.25 ug/ml

MFI A.U. [1]: 190 A.U.
MFI A.U. [2]: 696 A.U.
MFI A.U. [3]: 240 A.U.
MFI A.U. [4]: 516 A.U.
MFI A.U. [5]: 1080 A.U.
MFI A.U. [6]: 2540 A.U.
MFI A.U. [7]: 3320 A.U.
MFI A.U. [8]: 484 A.U.
MFI A.U. [9]: 253 A.U.
MFI A.U. [10]: 183 A.U.
MFI A.U. [11]: 199 A.U.
MFI A.U. [12]: 271 A.U.
MFI A.U. [13]: 312 A.U.
MFI A.U. [14]: 605 A.U.
MFI A.U. [15]: 617 A.U.
MFI A.U. [16]: 558 A.U.
MFI A.U. [17]: 202 A.U.
Substance: IC1 (isotype control antibody)
